This passage reports self-cleavage results from the RNAGym collection of RNA variant scans (doi:10.7554/elife.80360).

The labels stand for the following.
B1: HDV Ribozyme (parent)
chain: GGCCGGCAUGGUCCCAGCCUCCUCGCUGGCGCCGGCUGGGCAACAUUCCGAGGGGACCGUCCCCUCGGUAAUGGCGAAUGGGACCCA

The variants in the data set derive from B1. The experiment in a line: self-cleavage, relative activity (ratio to wild type); higher = more cleavage; co-transcriptional.
C7A C13G: the self-cleavage worked out at 0.
With U37C the figure was 1.03.
With U9C C14U the figure was 1.11; with U37C C64A, 0.831; with G5C C13G, 0.262.
The value for U12C G28C was 0.
G29A C62G: the self-cleavage was 0.169.
With C22U U65C the figure was 0.78; with C36G A87C, 0.146.
With C32A G68C the figure was 0.113; with G54U C58G, 0.997; with C85G, 0.948.
With G17C A51U the figure was 0.443.
Consider G54U A70G, for which the self-cleavage worked out at 1.03.
Turning to C33A C48U, the self-cleavage worked out at 0.163.
With G55C U72G the figure was 0.449; with C66U A83G, 0.643; with C48A C57G, 1.18.
In the case of C7U C85A, the self-cleavage is 0.665.
The value for U20C G54U was 0.122; that for C15A C21G was 0; that for C7U G34C was 0.193.
For U37G C57G, the self-cleavage is 0.145.
On to C36G C61U, for which the self-cleavage is 0.121.
Consider C66U A78G, for which the self-cleavage is 0.69.
The value for A45U C63G was 0.63.
Take C26A C62U: the self-cleavage stood at 1.12.
On to G80A C84A, for which the self-cleavage is 0.58.
With A8U G17A the figure was 0.665; with A43G U65A, 0.554; with U9G C26U, 0.554.
With A51C C62A the figure was 0.623; with U9C U46G, 1.19; with G2A U37G, 0.
Regarding C84G C85A, the self-cleavage amounted to 0.928.
Consider G11U A51C, for which the self-cleavage was 0.324.
A16G C22G: the self-cleavage came to 0.185.
For G50U C84G, the self-cleavage was determined as 0.724.
With C36A C48A the figure was 0.259; with G39U C63G, 0.507; with A43G G54C, 0.511.
As to G54C A87G, the self-cleavage amounted to 0.936.
With G35C G53A, the self-cleavage was found to be 0.172.
For C58G A87U, the self-cleavage worked out at 0.897.
The value for G38A U46C was 0.138; that for C19G G34C was 0.0978.
Take G6C A51C: the self-cleavage worked out at 0.225.
Regarding A56U G80A, the self-cleavage worked out at 0.358.
On to C33G G74A, for which the self-cleavage was 0.0449.
With C15G U47A the figure was 0.723; with C66G C86G, 1.07.
As for U65G A77U, the self-cleavage was 0.554.
Regarding G25C G82U, the self-cleavage was 0.0755.
The value for G74A C85G was 0.601.
Turning to G11A C14A, the self-cleavage stood at 0.148.
With A51C U60A, the self-cleavage is 1.11.
The value for C26G U37C was 1.01.
In the case of A56C C86A, the self-cleavage stood at 0.87.
The value for G74A C86A was 0.537; that for U27C A87U was 0.6.
The value for U27G G82C was 0.237; that for C30U G76A was 0.862.
With G10A C66G the figure was 0.623; with G10U C30G, 0.0989.
As for G38C A77C, the self-cleavage turned out to be 0.177.
As for C13U G40U, the self-cleavage amounted to 0.117.
The value for U46G C48U was 0.751; that for A51G C85G was 0.984.
The value for G10C A56G was 0.532; that for G40C C58U was 0.354; that for A78U G81A was 0.182.
A16G A71U: the self-cleavage turned out to be 1.01.
C32A A83G: the self-cleavage was determined as 0.152.
In the case of U12G A51U, the self-cleavage was 1.13.
The value for G55U C84A was 0.886; that for G31C G74A was 0.0573; that for C58U A87G was 0.876.
The value for C13G G38C was 0.0504; that for C32A G50A was 0.136; that for C41G A51G was 0.499.
On to C22A C75U, for which the self-cleavage came to 0.128.
The value for G31U G67A was 0.369.
Take A16C G28U: the self-cleavage was 0.0437.
G5A C14A: the self-cleavage was 0.
On to G28C A51G, for which the self-cleavage worked out at 0.0723.
As to U9A C19G, the self-cleavage came out at 0.0665.
Turning to U9A G31C, the self-cleavage was 0.287.
The value for C49U C63A was 1.
With C14U G29U the figure was 0.0739; with U12A, 0.309.
Consider U12G, for which the self-cleavage was determined as 0.922.
The value for U27C G80U was 0.21; that for G40A G76C was 0.947.
With U47A G68U the figure was 0.944; with U23G G55C, 0.748; with G17C C61G, 0.519.
With G40C A77C the figure was 0.151; with G34C A42C, 0.125; with G1C U46C, 0.229.
For C33G G52C, the self-cleavage was 0.128.
With G59A G68A, the self-cleavage was 0.968.
The value for C3U G17C was 0.0297; that for G2U C14A was 0.12.
As to C57A G76C, the self-cleavage is 1.05.
With C19A A87C the figure was 0.148; with G6A C13U, 0.145.
With G35C G52U the figure was 0.318; with C41U A45G, 0.575.
With C3U G5U the figure was 0.107; with G5A C85A, 0.113; with G2C U72C, 0.142.
G53A G81C: the self-cleavage is 0.266.
Consider G1C C26U, for which the self-cleavage amounted to 0.0898.
As to C49G G74U, the self-cleavage came out at 0.219.
With A43G G76C the figure was 0.58; with U12C G39U, 0.0723; with A56C A77C, 0.482.
The value for G25U C63U was 0.163; that for G2U G29U was 0.0712.
With C33U C66G the figure was 0.946; with G29A G76U, 0.428; with G52A C61G, 0.897.
Consider G28U U72C, for which the self-cleavage amounted to 0.0898.
With C19G C48A the figure was 0.115; with C66G G81C, 0.193; with A43U A71G, 0.405.
The value for G29C A42C was 0.
C22U G82U: the self-cleavage stood at 0.23.
As to G10U G74C, the self-cleavage turned out to be 0.138.
Regarding C26G U65C, the self-cleavage amounted to 1.16.
With G5A U20A the figure was 0.0437; with G2C A43C, 0.147.
In the case of C36G U60G, the self-cleavage turned out to be 0.0723.
The value for U27G G31A was 0.539; that for G5A G67A was 0.125.
G50U G76C: the self-cleavage was 1.19.
As for G17A G39C, the self-cleavage worked out at 0.
The value for U9G A45C was 0.712; that for A42C C86G was 0.353.
Take A45G G73A: the self-cleavage came out at 0.966.
With C66A A87C the figure was 1; with U27G C48A, 0.72; with G73U A87U, 0.374.
In the case of U12G U46G, the self-cleavage came out at 0.692.
For the variant G53U A56C, the self-cleavage turned out to be 0.831.
With C64A G73U the figure was 0.332.
Regarding G52U C63G, the self-cleavage came out at 0.277.
With C26U G74U the figure was 0.777.
With G6A C19A the figure was 0.0346; with C4A A45G, 0.138; with U60A U69C, 1.08.
Consider U12C A16U, for which the self-cleavage is 1.05.
With U12C A16C the figure was 0.302.
The value for C19G U60A was 0.0959.
As to G25A G55C, the self-cleavage is 0.191.
The value for C61U A87G was 0.933; that for C57G G82A was 0.302.
C21A G28A: the self-cleavage stood at 0.0268.
The value for C13A U23A was 0.138; that for C3G U69G was 0.658; that for A16G G81U was 0.489.
With G34A C63G the figure was 0.133; with C26U U60G, 0.831; with G38U G50U, 0.352.
For the variant C63U G67U, the self-cleavage turned out to be 1.02.
Take C32U U79A: the self-cleavage is 0.653.
The value for C15U U79C was 0.849.
